This note sets out measurements from the supplement of paper PMC7877785.

± gives the uncertainty stated by the source.

The nature of the data set: self-splicing fitness, log relative to wild type (ln ratio); higher = more splicing; Tetrahymena group I intron in knt gene, E. coli kanamycin selection, DiMSum; sequences stand for … in CUCUCU…GGAGGGAAAAGUUAUCAGGCAUGCACCUGGUAGCUAGUCUUUAAACCAAUAGAUUGCAUCGGUUUAAAAGGCAAGACCGUCAAAUUGCGGGAAAGGGGUCAACAGCCGUUCAGUACCAAGUCUCAGGGGAAACUUUGAGAUGGCCUUGCAAAGGGUAUGGUAAUAAGCUGACGGACAUGGUCCUAACCACGCAGCCAAGUCCUAAGUCAACAGAUCUUCUGUUGAUAUGGAUGCAGUUCACAGACUAAAUGUCGGUCGGGGAAGAUGUAUUCUUCUCAUAAGAUAUAGUCGGACCUCUCCUUAAUGGGAGCUAGCGGAUGAAGUGAUGCAACACUGGAGCCGCUGGGAACUAAUUUGUAUGCGAAAGUAUAUUGAUUAGUUUUGGAGUACUCGUGGUCG
Put shortly:
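Pooled colonies went to amplicon sequencing on an Illumina HiSeq 2500 after six replicate transformations. The plates were LB agar with 100 μg/mL carbenicillin, 50 μM IPTG and 0.2% rhamnose, with or without 25 μg/mL kanamycin, incubated overnight at 37°C or 30°C. The E. coli BL21(DE3) library had all eight P1ex-region intron nucleotides randomised, the intron placed in the knt kanamycin-resistance gene on pET-22b(+). DiMSum fitness is the error-weighted combination of replicate fold changes, kanamycin against none, normalised to wild type.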

For CAGGAGCAAUAUUACGCUGA, the “self-splicing fitness (ln)” value (30 °C) was -4.15 ± 0.23 and the “self-splicing fitness (ln)” value (37 °C) is -3.13 ± 0.2.

As for CAGGAGCAAUAUUACGGGAU, the “self-splicing fitness (ln)” value runs as follows: (30 °C) -3.55 ± 0.22; (37 °C) -2.28 ± 0.23. On to CAGGAGCAAUAUUACGGGCC, for which the “self-splicing fitness (ln)” value (30 °C) was -3.76 ± 0.42. For the sequence CAGGAGCAAUAUUACGGGGG, the “self-splicing fitness (ln)” value by setting is: (30 °C) -2.9 ± 0.19; (37 °C) -2.4 ± 0.25.

In the case of CAGGAGCAAUAUUACGGUCG, the “self-splicing fitness (ln)” value (30 °C) was found to be 0.425 ± 0.084 and the “self-splicing fitness (ln)” value (37 °C) is 0.544 ± 0.12.

CAGGAGCAAUAUUACGGUGA: the “self-splicing fitness (ln)” value by setting is: (30 °C) -2.96 ± 0.22; (37 °C) -3 ± 0.27. The corresponding values for CAGGAGCAAUAUUACGGUUC are -2.71 ± 0.43 and -1.74 ± 0.28. Regarding CAGGAGCAAUAUUACGUACU, the “self-splicing fitness (ln)” value (37 °C) was -2.97 ± 0.38.

Take CAGGAGCAAUAUUACGUCAU: the “self-splicing fitness (ln)” value (37 °C) is -1.89 ± 0.33.

CAGGAGCAAUAUUACGUCUU: the “self-splicing fitness (ln)” value (30 °C) was -2.33 ± 0.095 and the “self-splicing fitness (ln)” value (37 °C) was -2.16 ± 0.11. As for CAGGAGCAAUAUUACGUGCG, the “self-splicing fitness (ln)” value is -1.56 ± 0.079 (30 °C) and -0.807 ± 0.088 (37 °C).

As for CAGGAGCAAUAUUACGUGGA, the “self-splicing fitness (ln)” value reads like this: (30 °C) -3.47 ± 0.2; (37 °C) -3.3 ± 0.26. The corresponding values for CAGGAGCAAUAUUACGUGGU are -4.08 ± 0.23 and -3.15 ± 0.23. In the same order, the values of CAGGAGCAAUAUUACGUUAC are -2.43 ± 0.13 and -3.01 ± 0.21. In the same order, the values of CAGGAGCAAUAUUACGUUAU are -3.4 ± 0.29 and -2.71 ± 0.3. Consider CAGGAGCAAUAUUACGUUCC, for which the “self-splicing fitness (ln)” value reads like this: (30 °C) -3.33 ± 0.23; (37 °C) -2.04 ± 0.27.

Turning to CAGUAGCAAUAUUACGACCC, the “self-splicing fitness (ln)” value reads like this: (30 °C) -3.52 ± 0.44; (37 °C) -0.507 ± 0.34.

For the sequence CAGUAGCAAUAUUACGAGGU, the “self-splicing fitness (ln)” value (37 °C) was -2.88 ± 0.34. On to CAGUAGCAAUAUUACGCACG, for which the “self-splicing fitness (ln)” value by setting is: (30 °C) -1.27 ± 0.11; (37 °C) -0.303 ± 0.17.

In the case of CAGUAGCAAUAUUACGCCCA, the “self-splicing fitness (ln)” value was -2.16 ± 0.26 (30 °C) and -0.476 ± 0.45 (37 °C). The corresponding values for CAGUAGCAAUAUUACGCCCG are 0.504 ± 0.12 and -0.351 ± 0.15.

CAGUAGCAAUAUUACGCCUC: the “self-splicing fitness (ln)” value is -2.93 ± 0.46 (30 °C) and -2.4 ± 0.44 (37 °C). The corresponding values for CAGUAGCAAUAUUACGCUCA are -0.118 ± 0.13 and 0.5 ± 0.17. Take CAGUAGCAAUAUUACGCUCU: the “self-splicing fitness (ln)” value is -2.44 ± 0.18 (30 °C) and -0.957 ± 0.15 (37 °C). In the same order, the values of CAGUAGCAAUAUUACGGCGC are -1.59 ± 0.4 and -0.863 ± 0.25. For CAGUAGCAAUAUUACGGCUC, the “self-splicing fitness (ln)” value is -1.36 ± 0.14 (30 °C) and 0.325 ± 0.16 (37 °C). The corresponding values for CAGUAGCAAUAUUACGGGGU are -4.35 ± 0.32 and -2.1 ± 0.22.

Consider CAGUAGCAAUAUUACGGGUA, for which the “self-splicing fitness (ln)” value is -3.45 ± 0.4 (30 °C) and -1.01 ± 0.18 (37 °C). In the case of CAGUAGCAAUAUUACGUAGC, the “self-splicing fitness (ln)” value is -3.32 ± 0.12 (30 °C) and -3.18 ± 0.17 (37 °C). In the same order, the values of CAGUAGCAAUAUUACGUCUA are -0.56 ± 0.064 and -0.256 ± 0.071. In the same order, the values of CAGUAGCAAUAUUACGUCUC are -3.93 ± 0.37 and -2.13 ± 0.27. Consider CAGUAGCAAUAUUACGUUAC, for which the “self-splicing fitness (ln)” value by setting is: (30 °C) -3.34 ± 0.47; (37 °C) -2.76 ± 0.3. In the case of CAGUAGCAAUAUUACGUUCA, the “self-splicing fitness (ln)” value (30 °C) is -0.986 ± 0.14 and the “self-splicing fitness (ln)” value (37 °C) was -2.31 ± 0.23. As to CAUAAGCAAUAUUACGAAAA, the “self-splicing fitness (ln)” value (37 °C) was -3.32 ± 0.34.

Regarding CAUAAGCAAUAUUACGAAGG, the “self-splicing fitness (ln)” value is -1.56 ± 0.11 (30 °C) and -1.55 ± 0.15 (37 °C). The corresponding values for CAUAAGCAAUAUUACGAAGU are -3.15 ± 0.17 and -2.75 ± 0.29. The corresponding values for CAUAAGCAAUAUUACGACCU are -2.63 ± 0.28 and -1.62 ± 0.33. For CAUAAGCAAUAUUACGACUC, the “self-splicing fitness (ln)” value reads like this: (30 °C) -3.48 ± 0.34; (37 °C) -0.925 ± 0.14.

Consider CAUAAGCAAUAUUACGAGCG, for which the “self-splicing fitness (ln)” value is, setting by setting: (30 °C) 0.0605 ± 0.064; (37 °C) 0.0464 ± 0.088. For CAUAAGCAAUAUUACGAGGC, the “self-splicing fitness (ln)” value is -3.54 ± 0.35 (30 °C) and -2.24 ± 0.35 (37 °C).

In the case of CAUAAGCAAUAUUACGAGGG, the “self-splicing fitness (ln)” value was -2.96 ± 0.17 (30 °C) and -2.53 ± 0.28 (37 °C). The corresponding values for CAUAAGCAAUAUUACGAUCU are -2.67 ± 0.23 and -1.85 ± 0.24. The corresponding values for CAUAAGCAAUAUUACGCACA are -2.05 ± 0.12 and -0.312 ± 0.11. In the same order, the values of CAUAAGCAAUAUUACGCAGG are -1.84 ± 0.18 and -1.22 ± 0.18. As to CAUAAGCAAUAUUACGCCAA, the “self-splicing fitness (ln)” value reads like this: (30 °C) -2.33 ± 0.17; (37 °C) -2.69 ± 0.32.

With CAUAAGCAAUAUUACGCCAC, the “self-splicing fitness (ln)” value (30 °C) is -2.8 ± 0.37 and the “self-splicing fitness (ln)” value (37 °C) is -2.59 ± 0.39.

As for CAUAAGCAAUAUUACGCGUC, the “self-splicing fitness (ln)” value is, setting by setting: (30 °C) -3.98 ± 0.26; (37 °C) -2.15 ± 0.2. The corresponding values for CAUAAGCAAUAUUACGCUCC are -2.87 ± 0.23 and -0.216 ± 0.49. As to CAUAAGCAAUAUUACGCUCG, the “self-splicing fitness (ln)” value is, setting by setting: (30 °C) -0.821 ± 0.11; (37 °C) -0.252 ± 0.12. On to CAUAAGCAAUAUUACGGACG, for which the “self-splicing fitness (ln)” value is 0.133 ± 0.093 (30 °C) and 0.568 ± 0.12 (37 °C). In the same order, the values of CAUAAGCAAUAUUACGGCAA are -2.52 ± 0.18 and -1.61 ± 0.18.

Consider CAUAAGCAAUAUUACGGGCA, for which the “self-splicing fitness (ln)” value is -2.77 ± 0.18 (30 °C) and -1.8 ± 0.19 (37 °C). For CAUAAGCAAUAUUACGGGGC, the “self-splicing fitness (ln)” value by setting is: (30 °C) -3.25 ± 0.26; (37 °C) -1.22 ± 0.16. In the same order, the values of CAUAAGCAAUAUUACGGUAA are -3.92 ± 0.46 and -2.77 ± 0.29. The corresponding values for CAUAAGCAAUAUUACGGUCU are -2.8 ± 0.3 and -1.51 ± 0.2. The corresponding values for CAUAAGCAAUAUUACGGUUA are -2.7 ± 0.16 and -2.05 ± 0.12. Take CAUAAGCAAUAUUACGGUUU: the “self-splicing fitness (ln)” value is, setting by setting: (30 °C) -4.02 ± 0.19; (37 °C) -2.69 ± 0.17. As to CAUAAGCAAUAUUACGUAAU, the “self-splicing fitness (ln)” value by setting is: (30 °C) -4.04 ± 0.28; (37 °C) -2.16 ± 0.14. The corresponding values for CAUAAGCAAUAUUACGUAGA are -3.68 ± 0.13 and -1.97 ± 0.12. The corresponding values for CAUAAGCAAUAUUACGUCUC are -3.68 ± 0.3 and -2.52 ± 0.29. The corresponding values for CAUAAGCAAUAUUACGUGAG are -3.12 ± 0.13 and -0.711 ± 0.099. On to CAUAAGCAAUAUUACGUUCA, for which the “self-splicing fitness (ln)” value by setting is: (30 °C) -3.29 ± 0.13; (37 °C) -1.95 ± 0.13. In the same order, the values of CAUAAGCAAUAUUACGUUCU are -3.28 ± 0.23 and -3.1 ± 0.3.

On to CAUCAGCAAUAUUACGAACA, for which the “self-splicing fitness (ln)” value is -2.82 ± 0.25 (30 °C) and -1.85 ± 0.21 (37 °C). In the same order, the values of CAUCAGCAAUAUUACGAACC are -2.59 ± 0.24 and -0.525 ± 0.46. In the same order, the values of CAUCAGCAAUAUUACGAGAG are -1.9 ± 0.072 and -0.955 ± 0.075. In the same order, the values of CAUCAGCAAUAUUACGAGAU are -3.84 ± 0.18 and -3.71 ± 0.21. In the case of CAUCAGCAAUAUUACGAGGC, the “self-splicing fitness (ln)” value by setting is: (30 °C) -3.77 ± 0.2; (37 °C) -2.64 ± 0.21. For CAUCAGCAAUAUUACGAGGU, the “self-splicing fitness (ln)” value (30 °C) is -3.46 ± 0.21 and the “self-splicing fitness (ln)” value (37 °C) is -2.86 ± 0.22. In the same order, the values of CAUCAGCAAUAUUACGAGUC are -4.85 ± 0.34 and -1.6 ± 0.21. Regarding CAUCAGCAAUAUUACGAUAU, the “self-splicing fitness (ln)” value reads like this: (30 °C) -1.76 ± 0.073; (37 °C) -0.599 ± 0.085. The corresponding values for CAUCAGCAAUAUUACGAUGA are -2.62 ± 0.24 and -0.687 ± 0.15. In the same order, the values of CAUCAGCAAUAUUACGAUUA are -0.634 ± 0.091 and -0.682 ± 0.085. In the same order, the values of CAUCAGCAAUAUUACGCAAG are -0.655 ± 0.065 and -0.304 ± 0.065. For CAUCAGCAAUAUUACGCCCA, the “self-splicing fitness (ln)” value reads like this: (30 °C) -2.9 ± 0.23; (37 °C) -2.1 ± 0.21. The corresponding values for CAUCAGCAAUAUUACGCGUC are -2.58 ± 0.089 and -0.783 ± 0.086.
